In assay [1] the target is T1, talin1 R7-R8 (murine talin1 residues 1357–1653) (mouse, UniProt P26039 1357-1653).
T1 construct: talin1, mouse, residues 1357-1653 (R7-R8); 15N-labelled for NMR, unlabelled for fluorescence polarisation; Vector pet151-TOPO; also called talin R7-R8; wild type R7-R8
Kind of assay: fluorescence polarisation; fixed 0.5 μM BODIPY-labelled KANK peptide, increasing talin R7-R8, PBS, 100 μl, room temperature, triplicate; one site total and non-specific binding model. As to conditions: both partners purified. (In general: In fluorescence polarisation assays a small probe gives low polarisation when free and higher when bound to something large.)

Another assay addresses T2, talin1 R7-R8 S1641E (mouse, UniProt P26039 1357-1653, S1641E).
T2 construct: talin1, mouse, R7-R8 (limits as the wild type: 1357-1653) with S1641E; also called S1641E mutant; source: gene synthesized by GeneArt
Described as above. Conditions: both partners purified.

T1 sequence (P26039 1357-1653): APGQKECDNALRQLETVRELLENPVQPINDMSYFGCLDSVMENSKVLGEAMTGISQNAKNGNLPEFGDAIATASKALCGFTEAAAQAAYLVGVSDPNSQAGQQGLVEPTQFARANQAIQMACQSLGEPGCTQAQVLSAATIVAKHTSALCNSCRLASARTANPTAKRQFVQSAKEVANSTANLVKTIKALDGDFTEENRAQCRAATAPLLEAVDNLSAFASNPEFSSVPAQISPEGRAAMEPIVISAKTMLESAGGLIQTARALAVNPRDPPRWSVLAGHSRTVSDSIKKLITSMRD
T2 sequence (P26039 1357-1653 S1641E): as the sequence (P26039 1357-1653) above, with S285E counted along it

B1: BODIPY-labeled KANK1(30–60)C peptide (peptide)
peptide: PYFVETPYGFQLDLDFVKYVDDIQKGNTIKKC
modifications: BODIPY TMR dye coupled via the carboxy terminal cysteine
notes: KANK1, human, residues 30-60; added C-terminal cysteine; also called KANK1(30–60) peptide; source: synthetic peptide (Biomatik), dye-coupled, gel filtered
B1: the binding result (in assay [1]; with talin1 R7-R8 S1641E) was “binds” each time.

B2: BODIPY-labeled KANK2(31–61)C peptide (peptide)
peptide: PYSVETPYGYRLDLDFLKYVDDIEKGHTLRRC
modifications: BODIPY TMR dye coupled via the carboxy terminal cysteine
notes: KANK2, residues 31-61; added C-terminal cysteine; source: synthetic peptide (Biomatik), dye-coupled, gel filtered
On to B2, for which the binding result in assay [1] is “binds”.

For the origin of these results see article PMC4995097, “Talin-KANK1 interaction controls the recruitment of cortical microtubule stabilizing complexes to focal adhesions” (eLife, 2016).
